Experimental data reported in PMC12705745.

Biological target: T1, recombinant human C-reactive protein (human), P02741
T1 chain: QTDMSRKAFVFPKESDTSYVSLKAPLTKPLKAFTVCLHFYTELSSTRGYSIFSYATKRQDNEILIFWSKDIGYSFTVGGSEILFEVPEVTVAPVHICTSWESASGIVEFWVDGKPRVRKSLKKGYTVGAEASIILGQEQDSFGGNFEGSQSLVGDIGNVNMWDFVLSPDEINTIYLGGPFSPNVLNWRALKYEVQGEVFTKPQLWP
Test: cryo-EM structure; hCRP 6 mg/ml incubated with 4.5 mM CPS23F on ice for ~1 h, 0.02% Tween-20; C5 symmetry applied during reconstruction; 2.78 Å
Conditions: remark: other sources report otherwise

B1: recombinant human C-reactive protein, P02741-1 19-224 (natural protein)
chain: QTDMSRKAFVFPKESDTSYVSLKAPLTKPLKAFTVCLHFYTELSSTRGYSIFSYATKRQDNEILIFWSKDIGYSFTVGGSEILFEVPEVTVAPVHICTSWESASGIVEFWVDGKPRVRKSLKKGYTVGAEASIILGQEQDSFGGNFEGSQSLVGDIGNVNMWDFVLSPDEINTIYLGGPFSPNVLNWRALKYEVQGEVFTKPQLWP
  stoichiometry N: 5
